From US12012457 (SYNTHEKINE, dated 2024)

T1: extracellular domain of mouse IL23R (mIL23R ECD) (mouse, UniProt Q8K4B4 24-374)
T1 construct: also called mIL-23 ECD antigen
T1 sequence: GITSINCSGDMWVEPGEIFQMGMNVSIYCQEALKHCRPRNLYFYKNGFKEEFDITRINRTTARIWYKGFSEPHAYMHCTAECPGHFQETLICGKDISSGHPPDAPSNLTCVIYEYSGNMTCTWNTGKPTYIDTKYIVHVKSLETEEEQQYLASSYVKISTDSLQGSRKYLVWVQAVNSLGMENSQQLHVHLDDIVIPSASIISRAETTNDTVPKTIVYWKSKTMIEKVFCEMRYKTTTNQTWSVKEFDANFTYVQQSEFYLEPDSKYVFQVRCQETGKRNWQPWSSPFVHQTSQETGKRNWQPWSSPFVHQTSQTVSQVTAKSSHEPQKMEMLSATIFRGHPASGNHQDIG


Molecular target: T1, extracellular domain of mouse IL23R …
Assay: periplasmic extract ELISA (PE-ELISA), 96-well plate, colorimetric

Row | binding result | Binder
1 | binds | mIL23R VHH18 (VHH) VHH: QVQLQESGGGLVQPGGSLRLSCAASGFTFRLTAMRWVRQAPGKGLEWVSGIDSRGSTIYADSVKGRFTISKDNAKNTLYLQLNSLKTEDTAMYYCAQGVYGDTYSGSQGTQVTVSS
2 | binds | mIL23R VHH9 (VHH) VHH: QVQLQESGGGLVQPGGSLRLSCATSGFTFRLTAMRWVRQAPGKGVEWVSGIDSAGSTIYADSVKGRFTISKDNAKNTLYLQMNSLKTEDTAMYYCAQGVYGDTYSGSQGTQVTVSS
3 | binds | mIL23R VHH2 (VHH) VHH: QVQLQESGGGSVQAGGSLTLSCTAPGFTFRLAAMRWVRQAPGKGLEWVSGIDSRGSTIYADSVKGRFTISKDNAKNTLYLQLNSLKTEDTAMYYCAQGVYGDTYSGSQGTQVTVSS
4 | binds | mIL23R VHH12 (VHH) VHH: QVQLQESGGGSVQAGGSLRLSCAASGYTYSSCTMGWYRQAPGKERELVSMLISDGSTFYADSVKGRFTFSQENAKNTVYLQMNSLKPEDTAMYYCGCATLGSRTVWGQGTQVTVSS
5 | binds | mIL23R VHH11 (VHH) VHH: QVQLQESGGGSVQAGGSLRLSCAASGYTYSSCTMGWYRQAPGKERELVSMLISDGSTFYADSVKGRFTFSQENAKSTVYLQMNSLKPEDTAMYYCGCATLGSRTVWGQGTQVTVSS
6 | binds | mIL23R VHH8 (VHH) VHH: QVQLQESGGGSVQAGGSLRLSCTASRYTYSSCTMGWYRQAPGKERELVSMVFSDGSTFYADSVKGRFTFSQENAKNTVYLQMNSLKPEDTAMYYCGCATLGSRTIWGQGTQVTVSS
7 | binds | mIL23R VHH16 (VHH) VHH: QVQLQESGGGSVQAGGSLRLSCAASGDTYSSCTMGWYRQAPGKERDLVSMLMGDGSTFYADSVKGRFTFSQENAKNTVYLQMNNLKPEDTAMYYCGCATLGSRTIWGQGTQVTVSS
8 | binds | mIL23R VHH10 (VHH) VHH: QVQLQESGGGSVQAGGSLRLSCAASGDTYSSCTMGWYRQAPGKERDLVSMLMGDGSTFYADSVKGRFTFSQENAKNTVYLQMNSLKPEDTAMYYCGCATLGSRTIWGQGTQVTVSS
9 | binds | mIL23R VHH15 (VHH) VHH: QVQLQESGGGSVQAGGSLRLSCAASGYTYSSCTMGWYRQAPGKERELVSMVFSDGSTFYADSVKGRFTFSQENAKNTVYLQMNSLKPEDTAMYYCGCATLGSRTIWGQGTQVTVSS
10 | binds | mIL23R VHH25 (VHH) VHH: QVQLQESGGGSVQAGGSLRLSCAASGYTYSSCTMGWYRQAPGKERELVSMLISDGSTFYADSVKGRFTFSQENAKNTVYLQMNSLKPEDTAMYFCGCATLGSRTVWGQGTQVTVSS
11 | binds | mIL23R VHH1 (VHH) VHH: QVQLQESGGGSVQAGGSLRLSCAASGYTYSSCTMGWYRQAPGKERELVSMLISDGSTFYADSVKGRFTFSQEYAKNTVYLQMNSLKPEDTAMYYCGCATLGSRTVWGQGTQVTVSS
12 | binds | mIL23R VHH27 (VHH) VHH: QVQLQESGGGSVQAGGSLRLSCAASGYTYSSCTMGWYRQAPGKERELVSMLISDGSTFYADSVKGRFTSSQENAKNTVYLQMNSLKPEDTAMYYCGCATLGSRTVWGQGTQVTVSS
13 | binds | mIL23R VHH36 (VHH) VHH: QVQLQESGGGSVQAGGSLRLSCAASGDTYSSCTMGWYRQAPGKERDLVSMVFSDGSTFYADSVKGRFTFSQENAKNTVYLQMNSLKPEDTAMYYCGCATLGSRTIWGQGTQVTVSS
